Holding throughout (test): cell-based or functional assay
In one test the target is GLP-1 receptor (GLP-1R) (UniProt P43220 24-463, limits assumed).
In the next test the target is GCG receptor (GCGR) (UniProt P47871 26-477, limits assumed).
Another test concerns the target T1, GIP receptor (GIPR) (UniProt P48546 22-466, limits assumed).
T1 sequence (looked up): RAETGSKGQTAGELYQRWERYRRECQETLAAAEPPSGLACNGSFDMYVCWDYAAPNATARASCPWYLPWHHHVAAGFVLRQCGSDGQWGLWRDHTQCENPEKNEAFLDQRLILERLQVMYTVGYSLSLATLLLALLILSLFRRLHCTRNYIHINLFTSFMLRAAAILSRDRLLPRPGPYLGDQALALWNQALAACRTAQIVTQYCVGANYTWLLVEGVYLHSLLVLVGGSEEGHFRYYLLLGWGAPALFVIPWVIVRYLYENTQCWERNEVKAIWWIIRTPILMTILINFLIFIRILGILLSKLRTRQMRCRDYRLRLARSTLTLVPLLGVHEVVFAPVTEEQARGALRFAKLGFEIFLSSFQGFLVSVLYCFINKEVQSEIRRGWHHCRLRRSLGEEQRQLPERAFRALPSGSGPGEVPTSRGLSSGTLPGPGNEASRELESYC

The results in this text go back to patent EP4624486A1 (Guangdong Raynovent Biotech Co., Ltd., dated 2025).

Bridge positions count the residues as written; N and C are the ends. Square brackets hold non-standard residues; d marks the D form. Ends that are not written are not given here. stapled body chem0195 = not defined here; stapled body chem0208 = not defined here; stapled body chem0209 = not defined here; stapled body chem0212 = not defined here; stapled body chem0214 = not defined here; stapled body chem0215 = not defined here; αMeL = CC(C)C[C@](C)(N)C(=O)O; Orn = NCCC[C@H](N)C(=O)O; Aib = CC(C)(N)C(=O)O

Chain of GCG receptor (GCGR) (P47871 26-477 limits assumed): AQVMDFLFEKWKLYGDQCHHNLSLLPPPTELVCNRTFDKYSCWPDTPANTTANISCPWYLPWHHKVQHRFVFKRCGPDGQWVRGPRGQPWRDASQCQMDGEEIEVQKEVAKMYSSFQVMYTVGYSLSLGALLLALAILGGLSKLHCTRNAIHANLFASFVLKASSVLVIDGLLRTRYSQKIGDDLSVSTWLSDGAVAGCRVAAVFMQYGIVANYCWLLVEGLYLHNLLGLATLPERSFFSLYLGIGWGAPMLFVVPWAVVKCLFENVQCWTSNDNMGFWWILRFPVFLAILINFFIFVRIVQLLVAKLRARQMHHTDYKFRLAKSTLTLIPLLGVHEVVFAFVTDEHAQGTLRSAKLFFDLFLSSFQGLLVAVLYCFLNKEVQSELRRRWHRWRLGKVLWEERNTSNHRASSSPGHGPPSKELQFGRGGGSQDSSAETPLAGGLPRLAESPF

For the molecule Y[Aib]QGTFTSDYSI[αMeL]LDKKAQ[Aib]KFIEYLLEGGPSSGAPPPS-NH2 (bridge 17-21; also: further groups not given here) [Example 7], the “GLP-1 EC50 (nM); cAMP, agonistic activity” value (“GLP-1 EC50 (nM); cAMP” for short) with GLP-1 receptor (GLP-1R) came to 0.005 nM. Also, the “GCG EC50 (nM); cAMP, agonistic activity” value in the test with GCG receptor (GCGR) stood at 0.061 nM. Further, the “GIP-1 EC50 (nM); cAMP, agonistic activity” value (“GIP-1 EC50 (nM); cAMP” for short) in the test with GIP receptor (GIPR) is 0.0003 nM.

B1: Example 43 (peptide)
peptide: Y[Aib]QGTFTSDYSI[αMeL]KDKKAQ[Aib]AFIEYLLEGGPSSGAPPPS-NH2
modifications: linker 14-17 via (2-2-oxoethyl)‑glycine, AEEA, γGlu, 19‑phosphonononadecanoic acid
Turning to B1, the “GCG EC50 (nM); cAMP, agonistic activity” value with GCG receptor (GCGR) turned out to be 0.042 nM.

B2: Example 17 (peptide)
peptide: Y[Aib]QGTFTSDYSI[αMeL]LDKKAQ[Aib][Orn]FIEYLLEGGPSSGAPPPS-NH2
modifications: linker 17-21 via stapled body chem0215; reading uncertain; also: further groups not given here
On to B2, for which, in the test with GLP-1 receptor (GLP-1R), the “GLP-1 EC50 (nM); cAMP” value turned out to be 0.001 nM. Moreover, the “GCG EC50 (nM); cAMP, agonistic activity” value with GCG receptor (GCGR) came to 0.016 nM. The “GIP-1 EC50 (nM); cAMP” value with GIP receptor (GIPR) was found to be 0.0001 nM.

B3: Example 9 (peptide)
peptide: Y[Aib]QGTFTSDYSI[αMeL]LDKKAQ[Aib]KFIEFLLEGGPSSGAPPPS-NH2
modifications: bridge 17-21; also: stapled body between K17 and K21 is given only as a drawing, not in text
As for B3, the “GLP-1 EC50 (nM); cAMP” value in the test with GLP-1 receptor (GLP-1R) was 0.005 nM. In addition, the “GCG EC50 (nM); cAMP, agonistic activity” value in the test with GCG receptor (GCGR) amounted to 0.022 nM. The “GIP-1 EC50 (nM); cAMP” value with GIP receptor (GIPR) was 0.0004 nM.

B4: Example 6 (peptide)
peptide: Y[Aib]QGTFTSDYSI[αMeL]LDKKAQ[Aib]KFIEYLLEGGPSSGAPPPS-NH2
modifications: bridge 17-21; also: stapled body between K17 and K21 is given only as a drawing, not in text
On to B4, for which the “GLP-1 EC50 (nM); cAMP” value with GLP-1 receptor (GLP-1R) was determined as 0.005 nM. In addition, in the test with GCG receptor (GCGR), the “GCG EC50 (nM); cAMP, agonistic activity” value was 0.017 nM. In the test with GIP receptor (GIPR), the “GIP-1 EC50 (nM); cAMP” value came to 0.0005 nM.

B5: Example 5 (peptide)
peptide: H[Aib]HGTFTSDYSIYLEKKYA[Aib]KFVQWLLEGGPSSGAPPPS-NH2
modifications: bridge 17-21; not fully specified (bridges); also: stapled body (lipidated) structure only in drawing chem0198
Turning to B5, in the test with GLP-1 receptor (GLP-1R), the “GLP-1 EC50 (nM); cAMP” value came out at 0.029 nM. For the same molecule, the “GCG EC50 (nM); cAMP, agonistic activity” value in the test with GCG receptor (GCGR) was 0.012 nM. Further, in the test with GIP receptor (GIPR), the “GIP-1 EC50 (nM); cAMP” value was determined as 0.007 nM.

B6: Example 4 (peptide)
peptide: H[Aib]HGTFTSDYSIYLEKKYA[Aib]EFVKWLLKGGPSSGAPPPS-NH2
modifications: bridge 24-28; not fully specified (bridges); also: stapled body (lipidated) structure only in drawing chem0197
Regarding B6, in the test with GLP-1 receptor (GLP-1R), the “GLP-1 EC50 (nM); cAMP” value turned out to be 0.023 nM. Also, the “GCG EC50 (nM); cAMP, agonistic activity” value with GCG receptor (GCGR) came to 0.143 nM. The “GIP-1 EC50 (nM); cAMP” value with GIP receptor (GIPR) stood at 0.016 nM.

Y[Aib]QGTFTSDYSI[αMeL]LDKKAQ[Aib]KFIEYLLEGGPSSGAPPPS-NH2 (bridge 17-21) [Example 8]: the “GLP-1 EC50 (nM); cAMP” value with GLP-1 receptor (GLP-1R) worked out at 0.004 nM. Besides, the “GCG EC50 (nM); cAMP, agonistic activity” value in the test with GCG receptor (GCGR) worked out at 0.012 nM. Besides, in the test with GIP receptor (GIPR), the “GIP-1 EC50 (nM); cAMP” value was found to be 0.0004 nM.

For Y[Aib]QGTFTSDYSI[αMeL]LDKKAQ[Aib]KFIEYLLEGGPSSGAPPPS-NH2 (linker 17-21 via Glu, AEEA, AEEA, γGlu, C20 diacid) [Example 12], in the test with GLP-1 receptor (GLP-1R), the “GLP-1 EC50 (nM); cAMP” value came out at 0.002 nM. For the same molecule, in the test with GCG receptor (GCGR), the “GCG EC50 (nM); cAMP, agonistic activity” value came out at 0.007 nM. The “GIP-1 EC50 (nM); cAMP” value with GIP receptor (GIPR) amounted to 0.0001 nM.

Consider Y[Aib]QGTFTSDYSI[αMeL]KDKKAQ[Aib]AFIEYLLEGGPSSGAPPPS-NH2 (linker 14-17 via (2-2-oxoethyl)‑glycine, AEEA, γGlu, C20 diacid) [Example 21], for which the “GLP-1 EC50 (nM); cAMP” value in the test with GLP-1 receptor (GLP-1R) came out at 0.02 nM. Besides, the “GCG EC50 (nM); cAMP, agonistic activity” value with GCG receptor (GCGR) was 0.039 nM. Also, the “GIP-1 EC50 (nM); cAMP” value with GIP receptor (GIPR) came out at 0.0008 nM.

As to Y[Aib]QGTFTSDYSI[αMeL]LDKKAQ[Aib]KFIEFLLEGGPSSGAPPPS-NH2 (linker 17-21 via Ida, Lys, Lys, γGlu, C20 diacid) [Example 22], in the test with GLP-1 receptor (GLP-1R), the “GLP-1 EC50 (nM); cAMP” value is 0.009 nM. For the same molecule, in the test with GCG receptor (GCGR), the “GCG EC50 (nM); cAMP, agonistic activity” value is 0.034 nM. Moreover, the “GIP-1 EC50 (nM); cAMP” value in the test with GIP receptor (GIPR) came out at 0.0004 nM.

B7: Example 2 (peptide)
peptide: Y[Aib]QGTFTSDYSI[αMeL]LDKKAQ[Aib]AFIKWLLKGGPSSGAPPPS-NH2
modifications: linker 24-28 via stapled body chem0195; reading uncertain; also: further groups not given here
Regarding B7, in the test with GLP-1 receptor (GLP-1R), the “GLP-1 EC50 (nM); cAMP” value was 0.009 nM. For the same molecule, the “GCG EC50 (nM); cAMP, agonistic activity” value in the test with GCG receptor (GCGR) worked out at 0.279 nM. The “GIP-1 EC50 (nM); cAMP” value with GIP receptor (GIPR) was determined as 0.001 nM.

B8: Example 14 (peptide)
peptide: Y[Aib]QGTFTSDYSI[αMeL]LDKKAQ[Aib]KFIEYLLKGGPSSGAPPPS-NH2
modifications: linker 21-28 via stapled body chem0212; reading uncertain; also: further groups not given here
Turning to B8, the “GLP-1 EC50 (nM); cAMP” value with GLP-1 receptor (GLP-1R) came out at 0.001 nM. Moreover, the “GCG EC50 (nM); cAMP, agonistic activity” value in the test with GCG receptor (GCGR) stood at 0.028 nM. In addition, the “GIP-1 EC50 (nM); cAMP” value with GIP receptor (GIPR) is 0.0001 nM.

On to Y[Aib]QGTFTSDYSI[αMeL]LDKKAQ[Aib]KFIEFLIEGGPSSGAPPPS-NH2 (linker 17-21 via Ida, Lys, Lys, γGlu, C20 diacid) [Example 23], for which, in the test with GLP-1 receptor (GLP-1R), the “GLP-1 EC50 (nM); cAMP” value stood at 0.007 nM. Also, in the test with GCG receptor (GCGR), the “GCG EC50 (nM); cAMP, agonistic activity” value amounted to 0.096 nM. Besides, in the test with GIP receptor (GIPR), the “GIP-1 EC50 (nM); cAMP” value was 0.0004 nM.

B9: Example 16 (peptide)
peptide: Y[Aib]QGTFTSDYSI[αMeL]LDKKAQ[Aib][dK]FIEYLLEGGPSSGAPPPS-NH2
modifications: linker 17-21 via stapled body chem0214; reading uncertain; also: further groups not given here
Take B9: the “GLP-1 EC50 (nM); cAMP” value in the test with GLP-1 receptor (GLP-1R) turned out to be 0.002 nM. Also, in the test with GCG receptor (GCGR), the “GCG EC50 (nM); cAMP, agonistic activity” value was 0.042 nM. The “GIP-1 EC50 (nM); cAMP” value in the test with GIP receptor (GIPR) was determined as 0.0001 nM.

B10: Example 11 (peptide)
peptide: Y[Aib]QGTFTSDYSI[αMeL]LDKKAQ[Aib]AFIKYLLEGGPSSGAPPPS-NH2
modifications: linker 17-24 via stapled body chem0209; reading uncertain; also: further groups not given here
As to B10, the “GLP-1 EC50 (nM); cAMP” value in the test with GLP-1 receptor (GLP-1R) came out at 0.006 nM. In the test with GCG receptor (GCGR), the “GCG EC50 (nM); cAMP, agonistic activity” value turned out to be 0.129 nM. Further, the “GIP-1 EC50 (nM); cAMP” value with GIP receptor (GIPR) came to 0.0003 nM.

B11: Example 10 (peptide)
peptide: Y[Aib]QGTFTSDYSI[αMeL]LDKKAQ[Aib]EFIEYLLEGGPSSGAPPPS-NH2
modifications: linker 17-21 via stapled body chem0208; reading uncertain; also: further groups not given here
For B11, the “GLP-1 EC50 (nM); cAMP” value with GLP-1 receptor (GLP-1R) was 0.009 nM. For the same molecule, in the test with GCG receptor (GCGR), the “GCG EC50 (nM); cAMP, agonistic activity” value is 0.057 nM. Moreover, in the test with GIP receptor (GIPR), the “GIP-1 EC50 (nM); cAMP” value stood at 0.0003 nM.

On to Y[Aib]QGTFTSDYSI[αMeL]LDKKAQ[Aib]AFIEKLLEGGPSSGAPPPS-NH2 (linker 25-28 via Lys, AEEA, γGlu, C20 diacid) [Example 3], for which the “GLP-1 EC50 (nM); cAMP” value with GLP-1 receptor (GLP-1R) is 0.025 nM. Further, the “GCG EC50 (nM); cAMP, agonistic activity” value in the test with GCG receptor (GCGR) was 1.68 nM. For the same molecule, the “GIP-1 EC50 (nM); cAMP” value in the test with GIP receptor (GIPR) came to 0.003 nM.

B12: Example 28 (peptide)
peptide: Y[Aib]QGTFTSDYSK[αMeL]LDKKAQ[Aib]AFIEFLLEGGPSSGAPPPS-NH2
modifications: linker 12-16 via Ida, Lys, Lys, γGlu, C20 diacid; also: further groups not given here
As for B12, the “GLP-1 EC50 (nM); cAMP” value in the test with GLP-1 receptor (GLP-1R) was 0.011 nM. The “GCG EC50 (nM); cAMP, agonistic activity” value in the test with GCG receptor (GCGR) was found to be 0.11 nM. Moreover, in the test with GIP receptor (GIPR), the “GIP-1 EC50 (nM); cAMP” value was 0.0008 nM.

Turning to Y[Aib]QGTFTSDYSI[αMeL]LDKKAQ[Aib]AFIKYLLEGGPSSGAPPPS-NH2 (linker 17-24 via Ida, Lys, Lys, γGlu, C20 diacid) [Example 18], in the test with GLP-1 receptor (GLP-1R), the “GLP-1 EC50 (nM); cAMP” value turned out to be 0.008 nM. Further, the “GCG EC50 (nM); cAMP, agonistic activity” value in the test with GCG receptor (GCGR) was determined as 0.052 nM. Moreover, the “GIP-1 EC50 (nM); cAMP” value with GIP receptor (GIPR) was 0.0004 nM.

B13: Example 26 (peptide)
peptide: Y[Aib]QGTFTSDYSI[αMeL]LDKKAQ[Aib]KFIEFLLKGGPSSGAPPPS-NH2
modifications: linker 21-28 via Ida, Lys, Lys, γGlu, C20 diacid; also: further groups not given here
Consider B13, for which the “GLP-1 EC50 (nM); cAMP” value with GLP-1 receptor (GLP-1R) worked out at 0.014 nM. Besides, the “GCG EC50 (nM); cAMP, agonistic activity” value in the test with GCG receptor (GCGR) turned out to be 0.11 nM. Moreover, in the test with GIP receptor (GIPR), the “GIP-1 EC50 (nM); cAMP” value came out at 0.0005 nM.
